Assay results: paper PMC12529874

What was measured:
[1] = molecular target: H2O2-oxidized SOD1(C6A) (Cys111 sulfonylated) (human); experiment: not stated; Zn2+-bound SOD1(WT, C6A) before and after oxidation with H2O2; Figure S7, method not given
apo-SOD1(C6A) (human) [2] = experiment: as above
apo-SOD1(C6A) (human) [3] = experiment: native MS; mass spectra of apo-SOD1(C6A) under native conditions, before and after treatment with H2O2; spectra normalized to the 11+ charge state of the dimer
apo-SOD1(C6A) (human) [4] = experiment: SEC-MALS; gel filtration of 20 μM apo protein in MN buffer (100 mM MOPS, 50 mM NaCl, pH 7.0), before or after treatment with 10 mM H2O2, monitored at 280 nm, masses by MALS

Row | stoichiometry N [1] | stoichiometry N (apo-SOD1(C6A) (human) [2]) | stoichiometry N (apo-SOD1(C6A) (human) [3]) | stoichiometry N (apo-SOD1(C6A) (human) [4]) | Substance
1 | 2 |  |  |  | H2O2-oxidized SOD1(C6A) (Cys111 sulfonylated) (enzyme)
2 |  | 2 | 2 | 2 | apo-SOD1(C6A) (enzyme)
